Assay results as given in patent publication US20130315910A1 (Xencor, published 2013).

Experiments:
[1] = molecular target: T1, human FcγRIIb receptor protein (R&D Systems) (human, UniProt P31994 46-217); assay: SPR
T1 construct: Bought protein injected over captured antibody in Biacore; also called CD32b
T1 sequence (looked up): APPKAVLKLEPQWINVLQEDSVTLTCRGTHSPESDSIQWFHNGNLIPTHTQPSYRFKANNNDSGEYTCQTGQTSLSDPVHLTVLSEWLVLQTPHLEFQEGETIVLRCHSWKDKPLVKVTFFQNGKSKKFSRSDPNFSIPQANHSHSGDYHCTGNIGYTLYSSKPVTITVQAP

[2] = molecular target: T2, human FcγRI receptor protein (R&D Systems) (human, UniProt P12314 16-288); assay: SPR
T2 construct: also called soluble FcγRI; solFcγRI

[3] = molecular target: T3, human FcγRIIa (131R), His- and GST-tagged (human, UniProt P12318 34-217); assay: SPR
T3 construct: Expressed in HEK293T cells, purified by nickel chromatography; also called R131 FcγRIIa; not shown: 6xHis and GST tags of the pTT5 vector
T3 sequence (looked up): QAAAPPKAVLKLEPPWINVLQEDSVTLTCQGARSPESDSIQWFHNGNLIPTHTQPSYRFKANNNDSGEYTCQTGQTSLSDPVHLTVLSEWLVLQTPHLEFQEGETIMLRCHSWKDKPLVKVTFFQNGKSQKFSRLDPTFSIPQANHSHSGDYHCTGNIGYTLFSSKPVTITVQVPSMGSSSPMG

[4] = molecular target: T4, human FcγRIIa (131H), His- and GST-tagged (human, UniProt P12318 34-217); assay: SPR
T4 construct: also called H131 FcγRIIa; HIIa; not shown: 6xHis and GST tags of the pTT5 vector
T4 sequence (looked up): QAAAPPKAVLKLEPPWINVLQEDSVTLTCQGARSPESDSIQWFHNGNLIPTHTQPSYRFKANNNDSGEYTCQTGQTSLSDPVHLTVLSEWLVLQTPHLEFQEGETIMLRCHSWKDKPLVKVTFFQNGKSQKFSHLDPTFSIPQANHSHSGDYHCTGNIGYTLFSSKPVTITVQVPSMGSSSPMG

[5] = molecular target: T5, human FcγRIIIa (158V), His- and GST-tagged (human, UniProt P08637 17-208); assay: SPR
T5 construct: also called V158 FcγRIIIa; VIIIa; not shown: 6xHis and GST tags of the pTT5 vector

mFcγRIIb = molecular target: T6, mFcγRIIb (Mus musculus, UniProt P08101); assay: SPR
T6 construct: extracellular region, C-terminal His- and GST-tag; also called mouse FcγRII
T6 sequence (receptor extracellular region, looked up): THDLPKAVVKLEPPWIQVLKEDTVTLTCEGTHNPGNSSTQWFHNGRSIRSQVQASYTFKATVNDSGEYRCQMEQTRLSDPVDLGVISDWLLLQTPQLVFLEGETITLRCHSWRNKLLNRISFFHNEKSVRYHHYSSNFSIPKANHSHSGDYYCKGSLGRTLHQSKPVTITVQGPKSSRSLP

mFcγRIV = molecular target: T7, mFcγRIV; assay: SPR
T7 construct: also called mouse FcγRIV; not shown: C-terminal His and GST tags (named only on our card)
T7 chain: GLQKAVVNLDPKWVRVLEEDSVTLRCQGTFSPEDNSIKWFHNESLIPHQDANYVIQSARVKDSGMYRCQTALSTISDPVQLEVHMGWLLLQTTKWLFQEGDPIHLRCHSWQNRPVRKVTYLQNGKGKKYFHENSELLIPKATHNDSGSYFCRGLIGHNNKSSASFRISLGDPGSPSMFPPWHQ

cynoFcγRIIb = molecular target: T8, cynoFcγRIIb (Macaca fascicularis, UniProt A0A140HDP4); assay: SPR
T8 construct: extracellular region, C-terminal His- and GST-tag; also called cynomolgus monkey FcγRIIb
T8 sequence (receptor extracellular region): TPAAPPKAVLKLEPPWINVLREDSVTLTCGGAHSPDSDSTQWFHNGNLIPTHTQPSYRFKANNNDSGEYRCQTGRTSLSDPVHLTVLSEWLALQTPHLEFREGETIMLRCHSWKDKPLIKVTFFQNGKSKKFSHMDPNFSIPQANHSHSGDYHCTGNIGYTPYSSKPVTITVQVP

cynoFcγRIIIa = molecular target: T9, cynoFcγRIIIa (Macaca fascicularis, UniProt Q8SPW2); assay: SPR, Kd
T9 construct: extracellular region, C-terminal His- and GST-tag; also called cynomolgus monkey FcγRIIIa
How it was run: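 Kinetic constants came from global 1:1 Langmuir fits of reference- and buffer-subtracted sensorgrams, with association and dissociation followed in real time. Cynomolgus FcγR ectodomains flowed over antibodies (20 nM or 50 nM) held on protein A/G CM5 surface, HBS-EP pH 7.4, Biacore 3000; glycine pH 1.5 regeneration.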

[6] = molecular target: T10, human FcγRIIb on cells (transfected HEK293T cells; primary human B cells) (human, UniProt P31994 43-310); assay: flow cytometry on HEK293T cells transfected with human FcγRIIb, PE anti-human Fab detection
T10 construct: whole, on cells; also called CD32b
T10 sequence (looked up): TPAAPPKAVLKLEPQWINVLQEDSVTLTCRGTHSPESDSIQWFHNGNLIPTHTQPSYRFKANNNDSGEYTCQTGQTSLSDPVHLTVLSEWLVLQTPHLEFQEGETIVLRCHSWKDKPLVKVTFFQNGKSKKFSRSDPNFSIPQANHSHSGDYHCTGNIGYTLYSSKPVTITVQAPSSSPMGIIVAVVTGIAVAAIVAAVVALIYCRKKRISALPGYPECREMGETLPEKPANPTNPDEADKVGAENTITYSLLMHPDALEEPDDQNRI
Method: In order to validate the Biacore data and evaluate receptor binding of the variants on the cell surface, binding of select antibodies to cells expressing FcγRIIb was measured. […] HEK293T cells in DMEM with 10% FBS were transfected with human FcγRIIb cDNA in pCMV6 expression vector (Origene Technologies, Rockville, Md.), cultured for 3 days, harvested, washed twice in PBS, resuspended in PBS with 0.1% BSA (PBS/BSA), and aliquoted at 2×10^5 cells per well into 96-well microtiter plates. Fc variant antibodies were serially diluted in PBS/BSA then added to the cells and incubated with mixing for 1 h at room temperature. After extensive washing with PBS/BSA, phycoerythrin (PE)-labeled anti-human-Fab-specific goat F(ab′)2 fragment was added for detection. Cells were incubated for 30 min at room temperature, washed, and resuspended in PBS/BSA. Binding was evaluated using a FACSCanto II flow cytometer (BD Biosciences, San Jose, Calif.), and the mean fluorescence intensity (MFI) was plotted as a function of antibody concentration using Graph Pad Prism software (GraphPad Software, San Diego, Calif.) from which half-maximal binding (EC50) values were determined by sigmoidal dose response modeling.
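Throughout, for Fold vs WT IgG1 (off-rate): fold improvement over WT IgG1 so higher means slower dissociation than WT.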

T2 sequence (P12314 16-288 limits assumed): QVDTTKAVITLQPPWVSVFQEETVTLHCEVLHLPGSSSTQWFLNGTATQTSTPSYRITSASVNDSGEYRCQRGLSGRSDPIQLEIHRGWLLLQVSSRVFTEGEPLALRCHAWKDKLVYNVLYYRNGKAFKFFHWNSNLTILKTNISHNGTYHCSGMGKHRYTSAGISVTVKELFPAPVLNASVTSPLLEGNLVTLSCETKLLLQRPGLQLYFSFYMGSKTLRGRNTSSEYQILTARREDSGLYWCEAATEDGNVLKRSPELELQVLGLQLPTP
T5 sequence (P08637 17-208 F176V): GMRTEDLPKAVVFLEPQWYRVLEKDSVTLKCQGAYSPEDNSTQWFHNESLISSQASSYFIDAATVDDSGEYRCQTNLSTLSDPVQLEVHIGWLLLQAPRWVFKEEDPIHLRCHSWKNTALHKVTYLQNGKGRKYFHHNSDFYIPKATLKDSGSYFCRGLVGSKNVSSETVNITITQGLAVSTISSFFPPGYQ
T9 sequence (Q8SPW2 17-208): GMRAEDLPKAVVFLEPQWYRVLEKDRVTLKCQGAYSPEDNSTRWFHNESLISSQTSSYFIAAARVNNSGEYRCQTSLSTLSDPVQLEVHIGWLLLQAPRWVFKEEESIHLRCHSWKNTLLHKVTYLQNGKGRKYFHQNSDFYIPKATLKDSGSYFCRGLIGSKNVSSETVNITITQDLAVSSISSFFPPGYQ

B1: anti-CD19 antibody HuAM4G7 IgG1 S267E/L328F (antibody)
heavy: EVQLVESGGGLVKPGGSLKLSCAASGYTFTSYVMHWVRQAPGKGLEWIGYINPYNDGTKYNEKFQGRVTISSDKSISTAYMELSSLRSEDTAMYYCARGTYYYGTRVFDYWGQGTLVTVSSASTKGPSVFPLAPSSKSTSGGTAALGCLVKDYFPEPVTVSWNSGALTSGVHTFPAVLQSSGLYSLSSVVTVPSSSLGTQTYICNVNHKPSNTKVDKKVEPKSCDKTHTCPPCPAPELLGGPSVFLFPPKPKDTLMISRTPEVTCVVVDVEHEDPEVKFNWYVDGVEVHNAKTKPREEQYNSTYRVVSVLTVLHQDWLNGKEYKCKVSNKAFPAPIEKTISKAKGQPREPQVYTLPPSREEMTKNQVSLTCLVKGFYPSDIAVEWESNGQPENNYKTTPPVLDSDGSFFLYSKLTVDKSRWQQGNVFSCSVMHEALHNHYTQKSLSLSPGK
light: DIVMTQSPATLSLSPGERATLSCRSSKSLQNVNGNTYLYWFQQKPGQSPQLLIYRMSNLNSGVPDRFSGSGSGTEFTLTISSLEPEDFAVYYCMQHLEYPITFGAGTKLEIKRTVAAPSVFIFPPSDEQLKSGTASVVCLLNNFYPREAKVQWKVDNALQSGNSQESVTEQDSKDSTYSLSSTLTLSKADYEKHKVYACEVTHQGLSSPVTKSFNRGEC
notes: Positions in EU numbering; also called anti-CD19-S267E/L328F; α-CD19-S267E/L328F; copies: 2 + 2
Fold vs WT IgG1 [1]: 242 fold | Kd [1]: 6.06 nM | Fold vs WT IgG1 [2]: 1.5 fold | Kd [2]: 0.22 nM | Fold vs WT IgG1 [3]: 275 fold | Kd [3]: 3.12 nM | Fold vs WT IgG1 [4]: 0.7 fold | Kd [4]: 923 nM | Fold vs WT IgG1 [5]: 0.038 fold | Kd [5]: 5040 nM | Fold vs WT IgG1 (Kd) (mFcγRIIb): 1.06 fold | Fold vs WT IgG1 (off-rate) (mFcγRIIb): 4.89 fold | Fold vs WT IgG1 (Kd) (mFcγRIV): 0.02 fold | Fold vs WT IgG1 (off-rate) (mFcγRIV): 0.198 fold | Fold vs WT IgG1 (Kd) (cynoFcγRIIb): 0.881 fold | Fold vs WT IgG1 (off-rate) (cynoFcγRIIb): 1.26 fold | binding result (cynoFcγRIIIa): no binding | fold EC50 relative to WT IgG1 [6]: ~320 fold
